The test system of data set [1] is bone-marrow cells from healthy control donors. The data set is classed as cell-based, human. As for the experimental part:
Cryopreserved AML bone-marrow cells or healthy donor CD34 cells were thawed and plated in 96 wells plates. Cells were engaged with the indicated concentrations of LAIR-1 mAb or isotype control for 30 min at room temperature. Subsequently, cells were diluted in IMDM with 2% FBS and mixed with semisolid methylcellulose-based medium (MethoCult H4435 Enriched, StemCell Technologies, Vancouver, Canada) which contains human cytokines (stem cell factor, IL-3, IL-6, EPO, G-CSF, GM-CSF). Then, between 1e4 and 2.5e5 LSCs, or, between 1e3 and 5e3 healthy donor CD34 cells per well were plated on 6-well SmartDishes (StemCell Technologies, Vancouver, Canada). The cell-loaded plates were incubated at 37° C. with 5% CO2 in air and ≥95% humidity. On day 14, colony formation was counted by STEMvision (StemCell Technologies, Vancouver, Canada), an automated and standardized colony counting instrument. The automated results were confirmed and edited manually by the STEMvision Colony Marker software.

Data set [2] has as its system healthy T cells or NK cells. Briefly: Ex vivo killing of T cells or NK cells of a VEN/AZA-treated AML patient. The data set is classed as cell-based, human. The settings on record: same patient sample. The method, then: Ex vivo killing of VEN/AZA-treated AML patient leukemic cells (FIG. 7A) or T cells or NK cells (FIG. 7B). Values normalized to vehicle control. Lines represent linear regression of NC525 concentration versus normalized cell killing. […] FIGS. 7D and 7E show in vivo leukemic growth as measured by whole-body luminescence of MV4-11-luciferase cells (FIG. 7D) or survival (FIG. 7E) of CDX mice treated with 10 mg/kg isotype control (gray) or NC525 (red) or 100 mg/kg VEN (pink) or 0.5 mg/kg AZA (blue) or combination therapy (green or yellow, respectively). BLoD, below limit of detection. n=9 mice per group. P values determined by 2-way ANOVA or log-rank (Mantel-Cox) test, respectively. FIGS. 7F and 7G show leukemic growth in the blood (FIG. 7F) and in the spleen and BM (FIG. 7G) at week 8 after transplant of AML PDX mice treated with vehicle (gray), VEN/AZA (blue), NC525 (red), or VEN/AZA plus NC525 (green). n=5-10 mice per group. AML cells in spleen and BM compared from 4-5 mice per group. Data are shown as the mean±SEM. P values determined by 2-way ANOVA or 1-way ANOVA with multiple comparisons.

For another data set, the system named is MV4-11-Luc cells. The data set can be described thus: In-vitro phagocytosis (ADCP) assay, mouse bone marrow macrophages with MV4-11-Luc cells. The data set is classed as cell-based, human. The note with it: 20 μg/ml, 16 hours. The method, then: Mouse BMM was generated with 100 ng/ml M-CSF (Cat #416-ML-500) using seed BMM cells at 1e5/well in 24 well plate. Stain was done with Cell trace violet (Thermofisher). Target MV411 cells were labeled with PKH26 (Sigma #PKH26gl-1kt) according to manufacturer's instructions and cocultured with BMM at ratio of 5:1 in presence of 20 μg/ml h11B3 or control antibody for 16 hours. Phagocytosis was analyzed by flow cytometry.

The test system of a further data set is MV4-11 cells. Briefly: MV4-11-luciferase cell-derived xenograft (CDX) model. The data set is classed as in vivo, NSG mice. As for the experimental part:
2e6 luciferase-expressing MV4-11-Luc or THP-1-Luc cells were suspended in sterile PBS and implanted into NSG mice via tail-vein injection. […] AML cell proliferation was monitored by weekly i.p. injection of D-Luciferin, immediately followed by IVIS bioluminescent imaging and quantification of luminescent signal. […] Imaging Perkin Elmore IVIS Lumina XRMS Series III.
NSG mice were injected with 2e6 THP-1 luciferase cells or 2e6 MV4-11-luciferase cells via tail vein injection. Leukemia progression was quantified by i.p. injection of 100 μL bioluminescent substrate and IVIS imaging 8 minutes post injection. Progression was assessed weekly staring on Day 7 post-challenge. 10 mg/kg mab treatment was performed by i.p injection starting on day 8 and continuing twice a week until the end of the study. For the subcutaneous engraftment model, NSG mice were subcutaneously injected on the right flank with 5e6 MV4-11-Luc-LAIR-1^OE cells. Mice were treated by weekly i.p. injection of 10 mg/kg mAb. Tumor growth was measured by calipers twice weekly until end point.

The test system of the next data set is AML patient cells. The data set can be described thus: Ex vivo depleting assay, AML patient blood leukocytes. The data set is classed as cell-based, human. The method, then: Whole blood from AML-diagnosed donors was RBC-depleted using StemCell RBC depletion kit following the manufacturer's instructions. Leukocytes were re-suspended in complete RPMI media containing 3 μg/mL of soluble mAb, then plated in 96-well round-bottom plates for 48 hours at 37° C. Cell death was analyzed by AnnexinV and Fixable Live-Dead staining following the manufacturer's instructions, quantified by flow cytometry. RBC depletion StemCell Ref #18170. Isotype=FC-G1 BioXcell Ref #BE0096. Live-Dead Stain Invitrogen Cat #L34966. AnnexinV-AF647 Biolegend Cat #640943.
Fresh whole blood was RBC-depleted using the EasySep™ RBC Depletion Reagent (StemCell, Vancouver, BC) following the manufacturer's protocol. Alternatively, frozen PBMCs were thawed in pre-warmed cRPMI media. Cell number was determined by VI-Cell XR cell counter. 2e5 cells per well were plated into 96-well plates lacking or containing 50 μg/mL pre-coated human Collagen I (StemCell, Vancouver, BC) in 200 μL of cRPMI containing 10 μg/mL of soluble LAIR-1 mAb or isotype control antibody (NP782 (NextCure, Beltsville, MD) or InVivoMAb recombinant human IgG1 Fc (BioXcell, Lebanon, NH)). Plates were centrifuged at 100×g for 2 minutes, then incubated for 20 hours at 37° C. in a TC incubator. At the end of incubation period, plates were centrifuged at 500×g for 4 min. […]

Data set [3] has as its system blood leukocytes from healthy (non-AML) donors. The data set can be described thus: Ex vivo depleting assay, healthy donor blood leukocytes. The note with it: even in the presence of collagen ECM. The data set is classed as cell-based, human. The method, then:
Fresh whole blood was RBC-depleted using the EasySep™ RBC Depletion Reagent (StemCell, Vancouver, BC) following the manufacturer's protocol. Alternatively, frozen PBMCs were thawed in pre-warmed cRPMI media. Cell number was determined by VI-Cell XR cell counter. 2e5 cells per well were plated into 96-well plates lacking or containing 50 μg/mL pre-coated human Collagen I (StemCell, Vancouver, BC) in 200 μL of cRPMI containing 10 μg/mL of soluble LAIR-1 mAb or isotype control antibody (NP782 (NextCure, Beltsville, MD) or InVivoMAb recombinant human IgG1 Fc (BioXcell, Lebanon, NH)). Plates were centrifuged at 100×g for 2 minutes, then incubated for 20 hours at 37° C. in a TC incubator. At the end of incubation period, plates were centrifuged at 500×g for 4 min. Cells were resuspended and then transferred to a 96-well round-bottom plate for cell staining and flow cytometry as described above.

This is an account of results in US20240352121A1, “LAIR-1 AGONISTIC ANTIBODIES AND METHODS OF USE THEREOF” (NEXTCURE, INC., priority 2023, published 2024).

B1: LAIR-1 mAb: humanized agonist anti-LAIR-1 mAb, IgG1 backbone; h11B3 VL-2 (SEQ ID NO: 16), h11B3 VH-3 (SEQ ID NO: 27) (antibody, V domains shown)
VH: EVQLVESGGGLVQPGGSLKLSCAASGFTFNTNAMYWVRQAPGKGLEWVGRIRSKSSNYATYYAASVKGRFTISRDDSKNTLYLQMNSLKTEDTAVYYCVRGGSGFFAYWGQGTLVTVSS
VL: DIQMTQSPSSLSASLGDRVTITCKASEDIYIRLAWYQQKPGKAPRLLISTATSLETGVPSRFSGSGSGTDYTFTISSLQPEDIATYYCQQYWSTPYTFGGGTRLEIK
modifications: IgG1 constant regions; Synthetic: h11B3 VH-3; Synthetic: h11B3 VL-2
On to B1, for which the CFU formation entry in data set [1] is on record as “no change”. Also, in data set [2], the “impact on healthy T cells or NK cells” value is recorded as “no impact”. Moreover, the ADCP activity entry with MV4-11-Luc cells is on record as “induces ADCP activity”. For the same molecule, the “leukemic cell growth in vivo” value with MV4-11 cells (10 mg/kg i.p. twice a week) is “inhibited leukemic cell growth”. In the data set with MV4-11 cells (MV4-11 LAIR-1 OE vs WT cells), the “inhibition of LAIR-1 OE AML growth compared to LAIR-1 WT” value is reported as “more strongly inhibiting”. Further, in the data set with MV4-11 cells (biweekly dose of 10 mg/kg, flow cytometry of spleen and bone marrow), the tumor burden result is “reduce tumor burden”. In the data set on MV4-11 cells (mouse, in vivo), the “AML cells in the blood, spleen, and bone marrow” value was “nearly absent”; the “percentage of dead MV4-11 cells in blood, spleen, and bone-marrow” value is “increased”. In the data set with MV4-11 cells (physiologically relevant doses, 10 mg/kg NC525, 100 mg/kg VEN, 0.5 mg/kg AZA), the “MV4-11 in vivo growth, monotherapy” value is given as “significantly better activity than AZA monotherapy”. For the same molecule, the AML cell death entry in the data set on AML patient cells (3 μg/mL soluble mAb, 48 hours) is “induces AML cell death”. Besides, in the data set on AML patient cells (10 μg/mL, plate-coated collagen), the “cell death of total AML patient cells or CD45Low SSCLow blasts” value was “significant cell death”. The “depletion of blood leukocytes” value in data set [3] was “did not deplete”.
